{"source": "paper doi:10.1101/244665", "about": "(bioRxiv, 2019)", "proteins": {"B1": {"name": "Plasmodium falciparum M17 aminopeptidase (PfA-M17), wild type, truncated (amino acids 85-605) (enzyme, UniProt Q8IL11 85-605, looked up)", "chain": "ASEVPQVVSLDPTSIPIEYNTPIHDIKVQVYDIKGGCNVEEGLTIFLVNNPGKENGPVKISSKVNDKNVSEFLKDENMEKFNVKLGTSKHFYMFNDNKNSVAVGYVGCGSVADLSEADMKRVVLSLVTMLHDNKLSKLTVVFEINVDKNLFRFFLETLFYEYMTDERFKSTDKNVNMEYIKHLGVYINNADTYKEEVEKARVYYFGTYYASQLIAAPSNYCNPVSLSNAAVELAQKLNLEYKILGVKELEELKMGAYLSVGKGSMYPNKFIHLTYKSKGDVKKKIALVGKGITFDSGGYNLKAAPGSMIDLMKFDMSGCAAVLGCAYCVGTLKPENVEIHFLSAVCENMVSKNSYRPGDIITASNGKTIEVGNTDAEGRLTLADALVYAEKLGVDYIVDIATLTGAMLYSLGTSYAGVFGNNEELINKILNSSKTSNEPVWWLPIINEYRATLNSKYADINNISSSVKASSIVASLFLKEFVQNTAWAHIDIAGVSWNFKARKPKGFGVRLLTEFVLNDAL"}, "B2": {"name": "PfA-M17(A387P) (enzyme, Plasmodium falciparum, UniProt Q8IL11 85-605, looked up)", "chain": "B1 chain with A303P"}, "B3": {"name": "PfA-M17(Δ388–389) (enzyme, Plasmodium falciparum, UniProt Q8IL11 85-605, looked up)", "chain": "ASEVPQVVSLDPTSIPIEYNTPIHDIKVQVYDIKGGCNVEEGLTIFLVNNPGKENGPVKISSKVNDKNVSEFLKDENMEKFNVKLGTSKHFYMFNDNKNSVAVGYVGCGSVADLSEADMKRVVLSLVTMLHDNKLSKLTVVFEINVDKNLFRFFLETLFYEYMTDERFKSTDKNVNMEYIKHLGVYINNADTYKEEVEKARVYYFGTYYASQLIAAPSNYCNPVSLSNAAVELAQKLNLEYKILGVKELEELKMGAYLSVGKGSMYPNKFIHLTYKSKGDVKKKIALVGKGITFDSGGYNLKAGSMIDLMKFDMSGCAAVLGCAYCVGTLKPENVEIHFLSAVCENMVSKNSYRPGDIITASNGKTIEVGNTDAEGRLTLADALVYAEKLGVDYIVDIATLTGAMLYSLGTSYAGVFGNNEELINKILNSSKTSNEPVWWLPIINEYRATLNSKYADINNISSSVKASSIVASLFLKEFVQNTAWAHIDIAGVSWNFKARKPKGFGVRLLTEFVLNDAL"}, "B4": {"name": "PfA-M17(Δ388–390) (enzyme, Plasmodium falciparum, UniProt Q8IL11 85-605, looked up)", "chain": "ASEVPQVVSLDPTSIPIEYNTPIHDIKVQVYDIKGGCNVEEGLTIFLVNNPGKENGPVKISSKVNDKNVSEFLKDENMEKFNVKLGTSKHFYMFNDNKNSVAVGYVGCGSVADLSEADMKRVVLSLVTMLHDNKLSKLTVVFEINVDKNLFRFFLETLFYEYMTDERFKSTDKNVNMEYIKHLGVYINNADTYKEEVEKARVYYFGTYYASQLIAAPSNYCNPVSLSNAAVELAQKLNLEYKILGVKELEELKMGAYLSVGKGSMYPNKFIHLTYKSKGDVKKKIALVGKGITFDSGGYNLKASMIDLMKFDMSGCAAVLGCAYCVGTLKPENVEIHFLSAVCENMVSKNSYRPGDIITASNGKTIEVGNTDAEGRLTLADALVYAEKLGVDYIVDIATLTGAMLYSLGTSYAGVFGNNEELINKILNSSKTSNEPVWWLPIINEYRATLNSKYADINNISSSVKASSIVASLFLKEFVQNTAWAHIDIAGVSWNFKARKPKGFGVRLLTEFVLNDAL"}}, "target": "the molecule itself", "test": "SEC", "note": "Numbering of substitutions follows the chain as printed. In names and notes the source's numbering stands.", "data": [{"protein": "B1", "values": [{"measurement": "stoichiometry N", "value": 6}]}, {"protein": "B2", "values": [{"measurement": "stoichiometry N", "value": 6}]}, {"protein": "B3", "values": [{"measurement": "stoichiometry N", "value": 6}]}, {"protein": "B4", "values": [{"measurement": "stoichiometry N", "value": 6}]}]}
